Assay results taken from publication PMC5606850, “Acidic C-terminal domains autoregulate the RNA chaperone Hfq” (eLife, 2017).

How the values were obtained:
[1] = system: RNA molecular beacon and Target RNA; assay: RNA annealing kinetics (molecular beacon and Target RNAs), stopped-flow fluorescence; format: biochemical; conditions: 30 °C
Method: (§1) Figure 2. CTD and RNA occupy the same rim binding site. […] The CTD linker is shown in purple, the acidic tip in red and the N-terminal FITC as a yellow star. Hfq core is shown in cyan, with basic rim patches in dark blue. […] (C) Reaction scheme for annealing an RNA molecular beacon to a target RNA (open bar) ([Hopkins et al., 2011]; [Panja et al., 2015]). (D) Progress curves for annealing 50 nM molecular beacon and 100 nM Target by 50 nM Hfq65 hexamer at 30°C, measured by stopped-flow fluorescence. See Figure 2—figure supplement 3 for further data. (E) Contribution of core residues to CTD binding. Interaction energy (Expected Energetic Contribution; EEC) in silico for a core residue in the Rosetta models (solid symbols and solid line; adjusted R^2 = 0.77) or the average annealing rates for Target and Target-A18 relative to Hfq65 (open symbols and dashed line; adjusted R^2 = 0.94) versus experimental CTD binding energy (∆∆G°) for each Hfq65 variant. The binding energy, ∆∆G° = –RTln(Kd^MUT/Kd), reflects the perturbation to CTD binding by a mutation in Hfq65. The interaction energy in silico or EEC is defined as the average energy of a tail–core interaction multiplied by the average number of tail–core interactions per model (Figure 1B, top and Equation 3). The relative annealing rate for Hfq65 variants, krel = kobs^MUT/kobs^WT, is <1 if the mutated residue is important for RNA annealing. Figure 2—figure supplement 1. SDS-PAGE of purified Hfq variants. […] Annealing of 100 nM Target RNA to 50 nM beacon RNA by Hfq65 and Hfq65 variants was measured by stopped flow fluorescence at 30°C in 1 × TNK buffer. […] The change in fluorescence emission intensity was normalized to the maximum fluorescence within an experiment. […]
To determine how much core residues that bind the CTD contribute to Hfq’s RNA annealing activity, we compared the effect of rim mutations on the rate of base pairing between an RNA molecular beacon and the 16 nt Target RNA by stopped-flow fluorescence spectroscopy (Figure 2C) ([Hopkins et al., 2011]). […]

[2] = SDS-PAGE oligomerization of purified Hfq variants; format: physicochemical, E. coli; conditions: 4–20% SDS-PAGE, ~2.8 µg protein, 2% SDS, boiled
Method: as §1, with “variants. WT Hfq assembles into hexamers and dodecamers that are stable to SDS-PAGE, which can be used to evaluate the oligomerization of Hfq variants. Purified Hfq protein (~2.8 µg) was separated on a 4–20% SDS-PAGE gel and stained with Coomassie blue (lanes 2–6). Samples were prepared in 2% SDS and boiled before loading. Lane 1, Protein standards (10 µL All Blue Precision Plus, […]).” for “variants.”

Row | Substance | activity in single-turnover annealing assays ([1]; 50 nM beacon, 100 nM Target RNA, 0–200 nM Hfq hexamer) | oligomeric state on SDS-PAGE [2] | observed annealing rate of Hfq65 rim mutants ([1]; 50 nM molecular beacon, 100 nM Target, Hfq65 variants, TNK buffer)
1 | Hfq65: truncated E. coli Hfq variant lacking the CTD | highly active | form hexamers with slightly different stabilities | 
2 | Hfq65-R16A |  |  | most diminished
3 | Hfq102: full-length E. coli Hfq |  | migrates as a dodecamer (red dot) and monomer (green dot) with no visible hexamer band | 
